Test results: US20160145328A1 (published 2016)
Positions count from the first letter of the chain named. In names and notes the source's numbering stands.

B1: scFv DP47 VH A33D - linker - common VL (scFv, name in Kabat numbering)
scFv: QVQLLESGGGLVQPGGSLRLSCAASGFTFSSYDMSWVRQAPGKGLEWVSAISGSGGSTYYADSVKGRFTISRDNSKNTLYLQMNSLRAEDTAVYYCAKSYGAFDYWGQGTLVTVSSGGGGSGGGGSGGGGSTDIQMTQSPSSLSASVGDRVTITCRASQSISSYLNWYQQKPGKAPKLLIYAYSDLQSGVPSGFSGSGSGTDFTLTISSLQPEDFATYYCQQLMTHPTTFGQGTKVEIKR
notes: also called A33D (scFv)
B2: scFv DP47 VH Y32E - linker - common VL (scFv)
scFv: B1 scFv with Y32E, D33A
notes: also called Y32E (scFv)
B3: scFv DP47 VH T28R - linker - common VL (scFv, name in Kabat numbering)
scFv: B1 scFv with T28R, D33A
notes: also called T28R (scFv)
B4: scFv DP47 VH S31D - linker - common VL (scFv)
scFv: B1 scFv with S31D, D33A
notes: also called S31D (scFv)
B5: scFv DP47 VH S35G - linker - common VL (scFv, name in Kabat numbering)
scFv: B1 scFv with D33A, S35G
notes: also called S35G (scFv)

These binders were tested against T1, protein A (UniProt P38507 37-477) (assay: Heat/Cool phage ELISA: phage-displayed scFv, 80 C 10 min then 4 C 10 min, captured on coated protein A; signal as % of untreated sample).
T1 construct: also called Protein A superantigen
Procedure: The aggregation-resistance of clones was analyzed by measuring retention of signal after heat incubation in a phage ELISA format (McCafferty et al., 1990; Jespers et al., 2004). Wells of a Nunc Maxisorp Immuno-plate were coated overnight with protein A at a concentration of about 5 μg/ml in phosphate-buffered saline (PBS). The plate was washed once with PBS and blocked with about 4% (w/v) milk powder diluted in PBS (MPBS). Single colonies were picked from agar plates and grown overnight in 2×TY medium (containing about 16 g/L tryptone; about 10 g/L yeast extract; about 5 g/L NaCl, pH 7.0) supplemented with about 15 μg/ml tetracycline shaking at about 30° C. Cells were removed by centrifugation and phages were biotinylated directly in the culture supernatant by adding biotin-PEO₄-N-hydroxysuccinimide (Pierce; about 50 μM final concentration). For heat selection, supernatant was first incubated at about 80° C. for about 10 min and then at about 4° C. for about 10 min. Supernatant was added to the blocked ELISA wells. After three washes with PBS, bound phage particles were detected using an Extravidin-HRP conjugate (Sigma) and 3,3′,5,5′-tetramethylbenzidine (TMB) substrate. Absorbance was calculated by subtracting measurements at 450 and 650 nm.
The DP47-CDR1 mutants described above were paired with a common single variable light chain (VL; SEQ ID NO: 3) via a linker (SEQ ID NO: 4) in a scFv format (see the Materials and Methods section for full experimental details). […] Correctly folded scFv were captured by protein A ELISA and the absorbance signal of the treated sample was calculated as a percentage of the untreated sample.
In the case of B1, the “Retained binding to protein A” value is reported as 22%. In the case of B2, the “Retained binding to protein A” value is reported as 27%. In the case of B3, the “Retained binding to protein A” value is reported as 4%. With B4 the “Retained binding to protein A” value was 29%. For B5, the “Retained binding to protein A” value was 5%.
